{"source": "patent US20230295559A1", "about": "(PIVOT BIO, published 2023)", "biological_target": "T1, glutamine synthetase GlnA (Paenibacillus polymyxa CI41)", "T1 chain": "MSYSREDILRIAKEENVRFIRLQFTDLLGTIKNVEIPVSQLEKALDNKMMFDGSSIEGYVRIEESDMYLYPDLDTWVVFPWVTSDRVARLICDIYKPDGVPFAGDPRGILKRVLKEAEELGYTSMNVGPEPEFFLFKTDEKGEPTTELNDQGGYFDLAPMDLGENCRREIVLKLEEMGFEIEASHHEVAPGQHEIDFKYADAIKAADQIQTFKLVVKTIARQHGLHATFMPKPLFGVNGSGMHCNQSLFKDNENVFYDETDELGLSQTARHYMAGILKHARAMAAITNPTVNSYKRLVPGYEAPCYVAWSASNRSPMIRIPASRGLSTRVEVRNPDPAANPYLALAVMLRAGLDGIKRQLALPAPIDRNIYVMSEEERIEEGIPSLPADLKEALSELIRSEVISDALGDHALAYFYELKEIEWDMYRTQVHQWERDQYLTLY", "assay": "cell-based or functional assay"}
{"binder": "GlnR with C-terminal deletion (Δ113-137) (other) MGDEIRRNMALFPIGIVMKLTDLSARQIRYYEQHNLIVPARTSGNQRLFSFNDVERLLEIKALIEKGVNIAGIKQVMNPVTKESEEATVITADTEVKRREMSDTQLHRLLKQ", "values": [{"measurement": "overall nitrogenase activity (acetylene reduction assay)", "value": 5, "unit": "fold"}]}
